Measurements published in patent US20230203202A1 (DRAGONFLY THERAPEUTICS, published 2023).

Assays:
[1] = biological target: T1, human NKG2D on CD8+ T cells (human, UniProt P26718 1-216); test: cell-based or functional assay
T1 sequence (looked up): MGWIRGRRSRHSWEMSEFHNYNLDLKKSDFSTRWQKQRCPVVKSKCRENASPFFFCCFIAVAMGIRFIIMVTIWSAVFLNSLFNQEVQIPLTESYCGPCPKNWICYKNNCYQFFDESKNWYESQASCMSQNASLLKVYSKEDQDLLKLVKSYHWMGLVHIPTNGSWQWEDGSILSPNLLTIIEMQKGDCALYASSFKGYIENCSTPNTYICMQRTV

[2] = biological target: T2, human 5T4 (SPR and epitope mapping, construct not stated) (human, UniProt Q13641 32-355, limits assumed); test: SPR, h5T4 binding; control sample, HST pH 6, 7 days 4 °C
T2 construct: also called h5T4
T2 sequence (looked up): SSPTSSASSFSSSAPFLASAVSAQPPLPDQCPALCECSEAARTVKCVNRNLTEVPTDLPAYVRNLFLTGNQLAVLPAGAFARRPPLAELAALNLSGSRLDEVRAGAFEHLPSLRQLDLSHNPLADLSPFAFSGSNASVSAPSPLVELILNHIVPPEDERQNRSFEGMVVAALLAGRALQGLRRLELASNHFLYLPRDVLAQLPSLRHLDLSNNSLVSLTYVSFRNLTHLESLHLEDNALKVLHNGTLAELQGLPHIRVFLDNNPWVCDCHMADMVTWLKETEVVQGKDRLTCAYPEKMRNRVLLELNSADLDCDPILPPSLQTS

[3] = biological target: T2, human 5T4 (SPR and epitope mapping, …); test: SPR, Biacore 8K, 37 °C, TriNKET captured on anti-hFc chip, pH 6.0
Procedure: Briefly, SPR was performed using a Biacore 8K instrument at physiological temperature of 37° C. Briefly, human Fc specific antibodies were covalently immobilized at a density of about 8000-10000 resonance units (RU) on carboxy methyl dextran matrix of a CM5 biosensor chip to create an anti-hFc IgG chip. Samples were injected on the anti-hFc IgG chip at a flow rate of 10 μL/min for 60 seconds. Protein was serially diluted (300 nM-0.14 nM) in three-fold dilutions with running buffer and injected at a flow rate of 30 μl/min over the captured test articles. Association was monitored for 240-300 seconds, and dissociation was monitored for 300-900 seconds. Surfaces were regenerated between cycles with three pulses of 10 mM glycine-HCl (pH 1.7) injected for 20 seconds at 100 μL/min.

CD8+ T-cell lysis of BT-474 cells (Incucyte, 72 h), EC50 [1]: 0.66 nM
CD8+ T-cell lysis of FaDu cells (Incucyte, 72 h), EC50 [1]: 0.59 nM
Kd [2]: 7.8 nM
koff [2]: 0.00091 s⁻¹
kon [2]: 120000 M⁻¹ s⁻¹
Kd [3]: 9.4 nM
koff [3]: 0.0012 s⁻¹
kon [3]: 120000 M⁻¹ s⁻¹
B1: AB1310/AB1783-TriNKET® (bispecific antibody, human IgG1, kappa)
chain: DIQLTQSPSSLSASVGDRVTITCRASQSVTTSNYNYMHWFQQKPGKAPKLLIKFASNLESGVPSRFSGSGSGTDFTLTISSLQPEDFATYYCQHSWEIPWTFGCGTKVEIKGGGGSGGGGSGGGGSGGGGSEVQLVESGGGLVKPGGSLRLSCAASRFTFSDFGMHWVRQAPGKCLEWVSYISSGSSTIYYADSVKGRFTISRDNAKNSLYLQMNSLRAEDTAVYYCASSQSYYRGTLDYWGQGTTVTVSSASDKTHTCPPCPAPELLGGPSVFLFPPKPKDTLMISRTPEVTCVVVDVSHEDPEVKFNWYVDGVEVHNAKTKPREEQYNSTYRVVSVLTVLHQDWLNGKEYKCKVSNKALPAPIEKTISKAKGQPREPRVYTLPPCRDELTKNQVSLTCLVKGFYPSDIAVEWESNGQPENNYKTTPPVLVSDGSFTLYSKLTVDKSRWQQGNVFSCSVMHEALHNHYTQKSLSLSPG
heavy: EVQLVESGGGLVKPGGSLRLSCAASGFTFSSYSMNWVRQAPGKGLEWVSSISSSSSYIYYADSVKGRFTISRDNAKNSLYLQMNSLRAEDTAVYYCARGAPIGAAAGWFDPWGQGTLVTVSSASTKGPSVFPLAPSSKSTSGGTAALGCLVKDYFPEPVTVSWNSGALTSGVHTFPAVLQSSGLYSLSSVVTVPSSSLGTQTYICNVNHKPSNTKVDKKVEPKSCDKTHTCPPCPAPELLGGPSVFLFPPKPKDTLMISRTPEVTCVVVDVSHEDPEVKFNWYVDGVEVHNAKTKPREEQYNSTYRVVSVLTVLHQDWLNGKEYKCKVSNKALPAPIEKTISKAKGQPREPQVCTLPPSRDELTENQVSLTCLVKGFYPSDIAVEWESNGQPENNYKTTPPVLDSDGSFFLYSWLTVDKSRWQQGNVFSCSVMHEALHNHYTQKSLSLSPG
light: DIQMTQSPSSVSASVGDRVTITCRASQGISSWLAWYQQKPGKAPKLLIYAASSLQSGVPSRFSGSGSGTDFTLTISSLQPEDFATYYCQQGVSFPRTFGGGTKVEIKRTVAAPSVFIFPPSDEQLKSGTASVVCLLNNFYPREAKVQWKVDNALQSGNSQESVTEQDSKDSTYSLSSTLTLSKADYEKHKVYACEVTHQGLSSPVTKSFNRGEC
notes: also called AB1310-TriNKET®; AB1783 10F10 F3′ LH H(T62S) CHO opt
